T1: N+20/C-27 peptide (20 amino acids added onto the N-terminus and 27 deleted from the C-terminus of PSMGFR)
T1 peptide: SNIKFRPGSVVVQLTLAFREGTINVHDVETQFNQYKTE

T2: N-10 peptide (PSMGFR minus 10 amino acids from the N-terminus)
T2 construct: also called N-10 PSMGFR; PSMGFR N-10
T2 peptide: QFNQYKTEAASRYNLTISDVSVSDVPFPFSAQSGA

T3: N+9/C-9 peptide (9 amino acids added onto the N-terminus and 9 deleted from the C-terminus of PSMGFR)
T3 peptide: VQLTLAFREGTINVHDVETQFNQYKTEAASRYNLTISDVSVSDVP

T4: PSMGFR peptide (Primary Sequence of the MUC1 Growth Factor Receptor)
T4 construct: synthetic peptide immobilised on ELISA plates; also called MUC1* peptide; MUC1* extra cellular domain peptide
T4 peptide: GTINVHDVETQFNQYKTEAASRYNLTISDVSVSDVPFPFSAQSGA

T5: NME7-AB (recombinant) (Homo sapiens (Human), UniProt Q9Y5B8 92-376)
T5 construct: the entry ends in a His tag; also called NM23-H7
T5 sequence: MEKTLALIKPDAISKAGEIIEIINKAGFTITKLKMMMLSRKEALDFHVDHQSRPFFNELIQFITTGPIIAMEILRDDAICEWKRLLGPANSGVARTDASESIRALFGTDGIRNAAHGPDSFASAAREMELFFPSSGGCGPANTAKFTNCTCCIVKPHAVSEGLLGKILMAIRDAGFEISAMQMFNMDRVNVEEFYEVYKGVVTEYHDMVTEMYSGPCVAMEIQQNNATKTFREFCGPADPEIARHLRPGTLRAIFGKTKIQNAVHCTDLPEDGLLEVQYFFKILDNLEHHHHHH

B1: MN-E6 mouse monoclonal anti-MUC1* antibody (antibody, V domains shown)
VH: EVKVVESGGDLVKPGGSLKLSCVVSGFTFSRYGMSWVRQTPGKRLEWVATISGGGTYIYYPDSVKGRFTISRDNAKNTLYLQMSSLKSEDTAMYHCTRDNYGRNYDYGMDYWGQGTSVTVSS
VL: QIVLTQSPAIMSASPGEEVTLTCSATSSVSYIHWFQQRPGTSPKLWIYSTSNLASGVPVRFSGSGYGTSYSLTISRMEAEDAATYYCQQRSSSPFTFGSGTKLEIK
notes: mouse monoclonal raised against PSMGFR; also called Min-E6
B2: C-10 peptide (PSMGFR minus 10 amino acids from the C-terminus) (peptide)
peptide: GTINVHDVETQFNQYKTEAASRYNLTISDVSVSDV
notes: also called C-10 PSMGFR; PSMGFR C-10

The target in experiment [1] is T1, N+20/C-27 peptide (20 amino acids added …). The experiment is described as follows: ELISA (FIG. 63). The method, then:
(§1) ELISA assays were performed to determine if, in addition to recognizing their immunizing peptide, they recognized PSMGFR, N−10 or C−10. In addition, they were tested for their ability to bind to N+20/C−27, N+9/C−9. We first did the ELISA assay on our set of reference antibodies, MNC2, MNE6, which we know are cancer-specific plus MNC3, which we know recognizes stem cells and progenitor cells (FIG. 63A-63B). None of the reference antibodies bound to the N+20/C−27 peptide. MNC2 and MNE6 cannot bind to PSMGFR peptides with 27, 10 or 9 C-terminal deletions, however, MNC3 binds to C−10 and to N+9/C−9 peptides.
(In general: ELISA stands for enzyme-linked immunosorbent assay.)

Experiment [2] addresses B2. Briefly: ELISA.
The target of experiment [3] is T2, N-10 peptide (PSMGFR minus 10 amino …). Briefly: ELISA (FIG. 2B-2C).
Experiment [4] deals with T3, N+9/C-9 peptide (9 amino acids added …). Briefly: ELISA (FIG. 63A). The procedure: as §1
In experiment [5] the target is T4, PSMGFR peptide (Primary Sequence of the …). The experiment is described as follows: ELISA (FIG. 2C).
Another experiment concerns the target T5, NME7-AB (recombinant). Briefly: ELISA (FIG. 2A). The procedure:
(§2) FIGS. 2A-2I show results of ELISA assays. MUC1* peptides PSMGFR, PSMGFR minus 10 amino acids from the N-terminus aka N−10, or PSMGFR minus 10 amino acids from the C-terminus, aka C−10 are immobilized on the plate and the following are assayed for binding: NME7-AB (FIG. 2A), MN-C2 monoclonal antibody (FIG. 2B), MN-E6 monoclonal antibody (FIG. 2C), or dimeric NME1 (FIG. 2D). […] MUC1* peptides PSMGFR minus 10 amino acids from the N-terminus aka N−10, or PSMGFR minus 10 amino acids from the C-terminus, aka C−10, are immobilized on the plate and the following are assayed for binding: MN-C3 (FIG. 2E) and MN-C8 (FIG. 2F).

The target of the next experiment is T6, dimeric NME1 (human, UniProt P15531 1-152, limits assumed).
T6 construct: also called NM23-H1 dimers; dimeric NM23-H1
T6 sequence (P15531 whole entry): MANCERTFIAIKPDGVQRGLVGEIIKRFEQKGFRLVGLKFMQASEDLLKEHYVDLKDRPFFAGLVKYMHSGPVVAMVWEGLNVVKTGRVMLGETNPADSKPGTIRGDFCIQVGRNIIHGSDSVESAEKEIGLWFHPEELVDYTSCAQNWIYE
Briefly: ELISA (FIG. 2D). The procedure:
as §2

Turning to B1, the binding result in experiment [1] is recorded as “no binding”; in experiment [2], “no binding”; in experiment [3] it was “binds”; in experiment [4], “no binding (tested: 10 ug/mL or 1 ug/mL)”; in experiment [5], “binds”.
For B2, the binding result in the experiment with NME7-AB (recombinant) and with dimeric NME1 was “no binding” each time.

The values are drawn from patent US20220184120A1 (MINERVA BIOTECHNOLOGIES, published 2022).
